Eleven molecules from patent US20020197616A1 (REGENTS OF THE UNIVERSITY OF MICHIGAN, published 2002) can be followed below.

B1: IKKβ (enzyme, UniProt O14920 1-756, looked up)
chain: MSWSPSLTTQTCGAWEMKERLGTGGFGNVIRWHNQETGEQIAIKQCRQELSPRNRERWCLEIQIMRRLTHPNVVAARDVPEGMQNLAPNDLPLLAMEYCQGGDLRKYLNQFENCCGLREGAILTLLSDIASALRYLHENRIIHRDLKPENIVLQQGEQRLIHKIIDLGYAKELDQGSLCTSFVGTLQYLAPELLEQQKYTVTVDYWSFGTLAFECITGFRPFLPNWQPVQWHSKVRQKSEVDIVVSEDLNGTVKFSSSLPYPNNLNSVLAERLEKWLQLMLMWHPRQRGTDPTYGPNGCFKALDDILNLKLVHILNMVTGTIHTYPVTEDESLQSLKARIQQDTGIPEEDQELLQEAGLALIPDKPATQCISDGKLNEGHTLDMDLVFLFDNSKITYETQISPRPQPESVSCILQEPKRNLAFFQLRKVWGQVWHSIQTLKEDCNRLQQGQRAAMMNLLRNNSCLSKMKNSMASMSQQLKAKLDFFKTSIQIDLEKYSEQTEFGITSDKLLLAWREMEQAVELCGRENEVKLLVERMMALQTDIVDLQRSPMGRKQGGTLDDLEEQARELYRRLREKPRDQRTEGDSQEMVRLLLQAIQSFEKKVRVIYTQLSKTVVCKQKALELLPKVEEVVSLMNEDEKTVVRLQEKRQKELWNLLKIACSKVRGPVSGSPDSMNASRLSQPGQLMSQPSTASNSLPEPAKKSEELVAEAHNLCTLLENAIQDTVREQDQSFTALDWSWLQTEEEEHSCLEQAS
notes: Construct and tag not described for this test
B2: TRAF-1 (other, UniProt Q13077 1-416, looked up)
chain: MASSSGSSPRPAPDENEFPFGCPPTVCQDPKEPRALCCAGCLSENPRNGEDQICPKCRGEDLQSISPGSRLRTQEKAHPEVAEAGIGCPFAGVGCSFKGSPQSVQEHEVTSQTSHLNLLLGFMKQWKARLGCGLESGPMALEQNLSDLQLQAAVEVAGDLEVDCYRAPCSESQEELALQHFMKEKLLAELEGKLRVFENIVAVLNKEVEASHLALATSIHQSQLDRERILSLEQRVVELQQTLAQKDQALGKLEQSLRLMEEASFDGTFLWKITNVTRRCHESACGRTVSLFSPAFYTAKYGYKLCLRLYLNGDGTGKRTHLSLFIVIMRGEYDALLPWPFRNKVTFMLLDQNNREHAIDAFRPDLSSASFQRPQSETNVASGCPLFFPLSKLQSPKHAYVKDDTMFLKCIVETST
notes: Construct and tag not described
B3: RIP (enzyme, UniProt Q13546 1-671, looked up)
chain: MQPDMSLNVIKMKSSDFLESAELDSGGFGKVSLCFHRTQGLMIMKTVYKGPNCIEHNEALLEEAKMMNRLRHSRVVKLLGVIIEEGKYSLVMEYMEKGNLMHVLKAEMSTPLSVKGRIILEIIEGMCYLHGKGVIHKDLKPENILVDNDFHIKIADLGLASFKMWSKLNNEEHNELREVDGTAKKNGGTLYYMAPEHLNDVNAKPTEKSDVYSFAVVLWAIFANKEPYENAICEQQLIMCIKSGNRPDVDDITEYCPREIISLMKLCWEANPEARPTFPGIEEKFRPFYLSQLEESVEEDVKSLKKEYSNENAVVKRMQSLQLDCVAVPSSRSNSATEQPGSLHSSQGLGMGPVEESWFAPSLEHPQEENEPSLQSKLQDEANYHLYGSRMDRQTKQQPRQNVAYNREEERRRRVSHDPFAQQRPYENFQNTEGKGTAYSSAASHGNAVHQPSGLTSQPQVLYQNNGLYSSHGFGTRPLDPGTAGPRVWYRPIPSHMPSLHNIPVPETNYLGNTPTMPFSSLPPTDESIKYTIYNSTGIQIGAYNYMEIGGTSSSLLDSTNTNFKEEPAAKYQAIFDNTTSLTDKHLDPIRENLGKHWKNCARKLGFTQSQIDEIDHDYERDGLKEKVYQMLQKWVMREGIKGATVGKLAQALHQCSRIDLLSSLIYVSQN
notes: as for B2
B4: Ced-4 (other, UniProt P30429 1-549, looked up)
chain: MLCEIECRALSTAHTRLIHDFEPRDALTYLEGKNIFTEDHSELISKMSTRLERIANFLRIYRRQASELGPLIDFFNYNNQSHLADFLEDYIDFAINEPDLLRPVVIAPQFSRQMLDRKLLLGNVPKQMTCYIREYHVDRVIKKLDEMCDLDSFFLFLHGRAGSGKSVIASQALSKSDQLIGINYDSIVWLKDSGTAPKSTFDLFTDILLMLKSEDDLLNFPSVEHVTSVVLKRMICNALIDRPNTLFVFDDVVQEETIRWAQELRLRCLVTTRDVEISNAASQTCEFIEVTSLEIDECYDFLEAYGMPMPVGEKEEDVLNKTIELSSGNPATLMMFFKSCEPKTFEKMAQLNNKLESRGLVGVECITPYSYKSLAMALQRCVEVLSDEDRSALAFAVVMPPGVDIPVKLWSCVIPVDICSNEEEQLDDEVADRLKRLSKRGALLSGKRMPVLTFKIDHIIHMFLKHVVDAQTIANGISILEQRLLEIGNNNVSVPERHIPSHFQKFRRSSASEMYPKTTEETVIRPEDFPKFMQLHQKFYDSLKNFACC
notes: as for B2
B5: procaspase-9 (enzyme, UniProt P55211 1-416, looked up)
chain: MDEADRRLLRRCRLRLVEELQVDQLWDALLSRELFRPHMIEDIQRAGSGSRRDQARQLIIDLETRGSQALPLFISCLEDTGQDMLASFLRTNRQAAKLSKPTLENLTPVVLRPEIRKPEVLRPETPRPVDIGSGGFGDVGALESLRGNADLAYILSMEPCGHCLIINNVNFCRESGLRTRTGSNIDCEKLRRRFSSLHFMVEVKGDLTAKKMVLALLELAQQDHGALDCCVVVILSHGCQASHLQFPGAVYGTDGCPVSVEKIVNIFNGTSCPSLGGKPKLFFIQACGGEQKDHGFEVASTSPEDESPGSNPEPDATPFQEGLRTFDQLDAISSLPTPSDIFVSYSTFPGFVSWRDPKSGSWYVETLDDIFEQWAHSEDLQSLLLRVANAVSVKGIYKQMPGCFNFLRKKLFFKTS
notes: as for B2
B6: RICKΔCARD (residues 1-374), Flag-tagged (other, not shown: small tags and cut ends)
chain: MNGEAICSALPTIPYHKLADLRYLSRGASGTVSSARHADWRVQVAVKHLHIHTPLLDSERKDVLREAEILHKARFSYILPILGICNEPEFLGIVTEYMPNGSLNELLHRKTEYPDVAWPLRFRILHEIALGVNYLHNMTPPLLHHDLKTQNILLDNEFHVKIADFGLSKWRMMSLSQSRSSKSAPEGGTIIYMPPENYEPGQKSRASIKHDIYSYAVITWEVLSRKQPFEDVTNPLQIMYSVSQGHRPVINEESLPYDIPHRARMISLIESGWAQNPDERPSFLKCLIELEPVLRTFEEITFLEAVIQLKKTKLQSVSSAIHLCDKKKMELSLNIPVNHGPQEESCGSSQLHENSGSPETSRSLPAPQDNDFLS
notes: also called pcDNA3-Flag-RICK(1-374)
B7: TRAF-2 (other, UniProt Q12933 1-501, looked up)
chain: MAAASVTPPGSLELLQPGFSKTLLGTKLEAKYLCSACRNVLRRPFQAQCGHRYCSFCLASILSSGPQNCAACVHEGIYEEGISILESSSAFPDNAARREVESLPAVCPSDGCTWKGTLKEYESCHEGRCPLMLTECPACKGLVRLGEKERHLEHECPERSLSCRHCRAPCCGADVKAHHEVCPKFPLTCDGCGKKKIPREKFQDHVKTCGKCRVPCRFHAIGCLETVEGEKQQEHEVQWLREHLAMLLSSVLEAKPLLGDQSHAGSELLQRCESLEKKTATFENIVCVLNREVERVAMTAEACSRQHRLDQDKIEALSSKVQQLERSIGLKDLAMADLEQKVLEMEASTYDGVFIWKISDFARKRQEAVAGRIPAIFSPAFYTSRYGYKMCLRIYLNGDGTGRGTHLSLFFVVMKGPNDALLRWPFNQKVTLMLLDQNNREHVIDAFRPDVTSSSFQRPVNDMNIASGCPLFCPVSKMEAKNSYVRDDAIFIKAIVDLTGL
notes: as for B2
B8: TRADD (other, UniProt Q15628 1-312, looked up)
chain: MAAGQNGHEEWVGSAYLFVESSLDKVVLSDAYAHPQQKVAVYRALQAALAESGGSPDVLQMLKIHRSDPQLIVQLRFCGRQPCGRFLRAYREGALRAALQRSLAAALAQHSVPLQLELRAGAERLDALLADEERCLSCILAQQPDRLRDEELAELEDALRNLKCGSGARGGDGEVASAPLQPPVPSLSEVKPPPPPPPAQTFLFQGQPVVNRPLSLKDQQTFARSVGLKWRKVGRSLQRGCRALRDPALDSLAYEYEREGLYEQAFQLLRRFVQAEGRRATLQRLVEALEENELTSLAEDLLGLTDPNGGLA
notes: as for B2
B9: caspase-1 (enzyme, UniProt P29466 1-404, looked up)
chain: MADKVLKEKRKLFIRSMGEGTINGLLDELLQTRVLNKEEMEKVKRENATVMDKTRALIDSVIPKGAQACQICITYICEEDSYLAGTLGLSADQTSGNYLNMQDSQGVLSSFPAPQAVQDNPAMPTSSGSEGNVKLCSLEEAQRIWKQKSAEIYPIMDKSSRTRLALIICNEEFDSIPRRTGAEVDITGMTMLLQNLGYSVDVKKNLTASDMTTELEAFAHRPEHKTSDSTFLVFMSHGIREGICGKKHSEQVPDILQLNAIFNMLNTKNCPSLKDKPKVIIIQACRGDSPGVVWFKDSVGVSGNLSLPTTEEFEDDAIKKAHIEKDFIAFCSSTPDNVSWRHPTMGSVFIGRLIEHMQEYACSCDVEEIFRKVRFSFEQPDGRAQMPTTERVTLTRCFYLFPGH
notes: as for B2
B10: caspase-4 (enzyme, UniProt P49662 1-377, looked up)
chain: MAEGNHRKKPLKVLESLGKDFLTGVLDNLVEQNVLNWKEEEKKKYYDAKTEDKVRVMADSMQEKQRMAGQMLLQTFFNIDQISPNKKAHPNMEAGPPESGESTDALKLCPHEEFLRLCKERAEEIYPIKERNNRTRLALIICNTEFDHLPPRNGADFDITGMKELLEGLDYSVDVEENLTARDMESALRAFATRPEHKSSDSTFLVLMSHGILEGICGTVHDEKKPDVLLYDTIFQIFNNRNCLSLKDKPKVIIVQACRGANRGELWVRDSPASLEVASSQSSENLEEDAVYKTHVEKDFIAFCSSTPHNVSWRDSTMGSIFITQLITCFQKYSWCCHLEEVFRKVQQSFETPRAKAQMPTIERLSMTRYFYLFPGN
notes: as for B2
B11: IKKα (enzyme, UniProt O15111 1-745, looked up)
chain: MERPPGLRPGAGGPWEMRERLGTGGFGNVCLYQHRELDLKIAIKSCRLELSTKNRERWCHEIQIMKKLNHANVVKACDVPEELNILIHDVPLLAMEYCSGGDLRKLLNKPENCCGLKESQILSLLSDIGSGIRYLHENKIIHRDLKPENIVLQDVGGKIIHKIIDLGYAKDVDQGSLCTSFVGTLQYLAPELFENKPYTATVDYWSFGTMVFECIAGYRPFLHHLQPFTWHEKIKKKDPKCIFACEEMSGEVRFSSHLPQPNSLCSLVVEPMENWLQLMLNWDPQQRGGPVDLTLKQPRCFVLMDHILNLKIVHILNMTSAKIISFLLPPDESLHSLQSRIERETGINTGSQELLSETGISLDPRKPASQCVLDGVRGCDSYMVYLFDKSKTVYEGPFASRSLSDCVNYIVQDSKIQLPIIQLRKVWAEAVHYVSGLKEDYSRLFQGQRAAMLSLLRYNANLTKMKNTLISASQQLKAKLEFFHKSIQLDLERYSEQMTYGISSEKMLKAWKEMEEKAIHYAEVGVIGYLEDQIMSLHAEIMELQKSPYGRRQGDLMESLEQRAIDLYKQLKHRPSDHSYSDSTEMVKIIVHTVQSQDRVLKELFGHLSKLLGCKQKIIDLLPKVEVALSNIKEADNTVMFMQGKRQKEIWHLLKIACTQSSARSLVGSSLEGAVTPQTSAWLPPTSAEHDHSLSCVVTPQDGETSAQMIEENLNCLGHLSTIIHEANEEQGNSMMNLDWSWLTE
notes: as for B1

T1 sequence (Q9HC29 whole entry): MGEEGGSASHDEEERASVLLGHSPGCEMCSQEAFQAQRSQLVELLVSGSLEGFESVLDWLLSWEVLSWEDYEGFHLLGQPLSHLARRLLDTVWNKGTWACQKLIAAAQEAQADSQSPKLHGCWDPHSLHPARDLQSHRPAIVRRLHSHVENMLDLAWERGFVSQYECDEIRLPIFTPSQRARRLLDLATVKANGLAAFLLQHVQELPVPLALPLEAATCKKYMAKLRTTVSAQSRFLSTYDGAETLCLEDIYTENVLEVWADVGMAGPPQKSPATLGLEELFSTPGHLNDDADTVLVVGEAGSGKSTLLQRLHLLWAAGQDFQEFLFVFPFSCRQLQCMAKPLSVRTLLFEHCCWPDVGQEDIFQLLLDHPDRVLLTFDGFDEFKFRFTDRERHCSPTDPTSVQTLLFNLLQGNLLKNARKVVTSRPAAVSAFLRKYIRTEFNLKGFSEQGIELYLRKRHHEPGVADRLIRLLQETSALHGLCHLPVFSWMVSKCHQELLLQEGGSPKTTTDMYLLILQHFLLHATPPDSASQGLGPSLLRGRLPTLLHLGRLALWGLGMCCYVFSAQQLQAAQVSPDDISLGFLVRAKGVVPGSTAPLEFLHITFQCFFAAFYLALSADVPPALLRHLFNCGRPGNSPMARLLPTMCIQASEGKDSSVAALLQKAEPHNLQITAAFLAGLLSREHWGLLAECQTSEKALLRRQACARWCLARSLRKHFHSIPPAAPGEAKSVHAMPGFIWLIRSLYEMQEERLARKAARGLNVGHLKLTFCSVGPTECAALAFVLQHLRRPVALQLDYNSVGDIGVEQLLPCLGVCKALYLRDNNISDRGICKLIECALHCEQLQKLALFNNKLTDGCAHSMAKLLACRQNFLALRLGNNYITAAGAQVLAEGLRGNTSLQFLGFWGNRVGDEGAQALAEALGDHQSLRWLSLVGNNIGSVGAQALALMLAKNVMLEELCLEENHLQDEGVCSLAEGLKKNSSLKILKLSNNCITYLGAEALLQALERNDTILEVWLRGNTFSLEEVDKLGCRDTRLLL

This experiment has as its target T1, Nod2 (wild-type, HA-tagged) (human, UniProt Q9HC29 1-1040).
T1 construct: Expressed in HEK293T cells and tested in cell extracts by co-immunoprecipitation; also called Nod2a; wt Nod2; not shown: HA tag; the plasmid is named both pcDNA3-Nod2-HA and pcDNA3-HA-Nod2, so the end that carries the ta
Description: co-immunoprecipitation, HEK293T extracts. The source says:
Proteins co-immunoprecipitated with anti-HA antibody were detected with anti-Flag antibody. […] Proteins in total lysate were detected by anti-Flag and anti-HA monoclonal antibody, respectively. […]
For B1, the binding result was “no binding”.

With B2, the binding result was “no binding”.

With B3, the binding result is listed as “no binding”.

On to B4, for which the binding result is listed as “no binding”.

In the case of B5, the binding result was “no binding”.

For B6, the binding result is listed as “no binding”.

Regarding B7, the binding result is “no binding”.

With B8, the binding result is “no binding”.

For the molecule B9, the binding result was “no binding”.

On to B10, for which the binding result was “no binding”.

With B11, the binding result was “no binding”.
